Consider 22 sequences from the DeepSol protein solubility set.

The nature of the data set: soluble on expression in E. coli; label from the status in PepcDB or PDB records.
For “MSLTFCYPCRAFALLTRGFTSFMSGWPRIYYKLLNLPLSILVKSKSIPADPAPELGLDTSRPIMYVLPYNSKADLLTLRAQCLAHDLPDPLEPLEIDGTLLPRYVFIHGGPRVFTYYTPKEESIKLFHDYLDLHRSNPNLDVQMVPVSVMFGRAPGREKGEVNPPLRMLNGVQKFFAVLWLGRDSFVRFSPSVSLRRMADEHGTDKTIAQKLARVARMHFARQRLAAVGPRLPARQDLFNKLLASRAIAKAVEDEARSKKISHEKAQQNAIALMEEIAANFSYEMIRLTDRILGFTWNRLYQGINVHNAERVRQLAHDGHELVYVPCHRSHMDYLLLSYVLYHQGLVPPHIAAGINLNFWPAGPIFRRLGAFFIRRTFKGNKLYSTVFREYLGELFSRGYSVEYFVEGGRSRTGRLLDPKTGTLSMTIQAMLRGGTRPITLIPIYIGYEHVMEVGTYAKELRGATKEKESLPQMLRGLSKLRNLGQGYVNFGEPMPLMTYLNQHVPDWRESIDPIEAVRPAWLTPTVNNIAADLMVRINNAGAANAMNLCCTALLASRQRSLTREQLTEQLNCYLDLMRNVPYSTDSTVPSASASELIDHALQMNKFEVEKDTIGDIIILPREQAVLMTYYRNNIAHMLVLPSLMAAIVTQHRHISRDVLMEHVNVLYPMLKAELFLRWDRDELPDVIDALANEMQRQGLITLQDDELHINPVHSRTLQLLAAGARETLQRYAITFWLLSANPSINRGTLEKESRTVAQRLSVLHGINAPEFFDKAVFSSLVLTLRDEGYISDSGDAEPAETMKVYQLLAELITSDVRLTIESATQGEEGHHHHHH”, the “soluble on expression in E. coli” value is listed as “soluble”.
Next, “MGSDKIHHHHHHMETPTQDMDVRWLYTQSQLKLREILPTNKTFDVIQISELVDPTDFISPNSVVLSVGIAFAETPDGLRDWAHRLADAGVIAIGFGSGLTFPQVPQALIDASLHLGLGLFEVPREIPFISITSSVRDEQTRRAGRLQQELLLEQERLNSIAISGGIEALCRAAADYLGGAVAIVDSDGRVACSITTDDLDALPQAVSRLNGSSQALTDATNFGFIHRMTRYGDRHHVLSVLMPTRPSEQHRALIRHCAGLADILLQRPEAMRDREIEVRSLAMSLLLGRSDDLATIHRVFADITDASGNIRPILITGNTPQSVRKALSSVATALYKQERALAHLRLAESTELLFLRGSRSVHNIVQLFGTAASGVRLCIGLPTRAENIDKKLIRELTATAKTLQLGTHAEPRDGTLLWLQNPELRKILKIRSRDTYDRLLDHDRTNNTELAPTLVSFTQHSGHIGDTAKELGIHRHTVRTRMIRIEEICEIDLNDPLTRAELLLVIATKEGDVEKQ”: “not soluble”; “MTDVKTQNAISLKGSAQLVKEFFHFGLNSILYQRALYPSDSFKREKKYGLTLWVAHEKKLQAFMDPLLQQVEYWLAKRQLKRLVMVISEVKTKEVVERWQFDIHTENLAEEGYEIV”: “not soluble”; “MTSHKRFCLSSRSPSYHTTELSLPLYIKFISWDFDCFQVDDVGFRPIFSAKTPNSPFTVEILRSGISGIVFDERETNTTANDGRMNFAMEYIIDKLLGDRCVPITVETLQISVDRVHYIFSKNLNMICKNLDVSIIETGVTLDTILHTSSYPLKSLSLSNTWAFAHPIILTAELLIVPTSDHFHRITNARVHAISLSGDFKLFIYEWLENGREIGTEFTIGGFRGRDYAKKMVCDIKEEFDERFQVVRRSHFPLSIAIKMNDFSEIYVFYDDIMERSKVYFKVQPTQF”: “not soluble”.
With “MIIGSRRARSDKYVKIAHLMQCTQPWFNHFLPEPESPQASTYKMLKPVSWLPRPVKSVSFYPSRRTAVARNGHNLRLQWRGPLPELHWHSRSLQHTQH”, the “soluble on expression in E. coli” value is recorded as “not soluble”.
As to “MGSDKIHHHHHHMLQQVPTRAFHVIAKPSGSDCNLNCDYCFYLEKQSLYREKPVTHMDDDTLEAYIRHYIAASELQNEVAFTWQGGEPTLLGLEFYRRAVALQAKYGAGRKISNSFQTNGVLLDDEWCAFLAENNFLVGLSLDGPAEIHNQYRVTKGGRPTHKLVMRALTLLQKHHVDYNVLVCVNRTSAQQPLQVYDFLCDAGVEFIQFIPVVERLADETAVRDGLKLHAPGDIQGELTEWSVRPDEFGEFLVAIFDHWIKRDVGKIFVMNIEWAFANFVGAPGAVCHHQPTCGRSVIVEHNGDVYACDHYVYPQYRLGNMHQQTIAEMIDSPQQQVFGEDKFKQLPAQCRSCNVLKACWGGCPKHRFMLDASGKPGLNYLCAGYQRYFRHLPPYLKAMADLLAHGRPASDIMQAHLMVVNK”, the “soluble on expression in E. coli” value was “not soluble”.
Next, “MSSRVLTPDVVGIDALVHDHQTVLAKAEGGVVAVFANNAPAFYAVTPARLAELLALEEKLARPGSDVALDDQLYQEPQAAPVAVPMGKFAMYPDWQPDADFIRLAALWGVALREPVTTEELASFIAYWQAEGKVFHHVQWQQKLARSLQIGRASNGGLPKRDVNTVSEPDSQIPPGFRG”: “soluble”; “MVKTRLTAEEFFALPLERGELVDGEVREERPPKPEHGRIALRIGYHLMRWLEETGRGVAGVEGGFVLRRDPDRVRSPDVWFLSHERLKEVTREGFYEGAPDLAVEVVSPGEEAEGVLAKVLDYLEAGAKAVWLVYPELKAVEVYGRGGEGRLLRAHEVLEGGEALPGFRLPLEALFGQ”: “soluble”; “MSLKVLAAMSGGVDSSVAAARMVDAGHEVVGVHMALSTAPGTLRTGSRGCCSKEDAADARRVADVLGIPFYVWDFAEKFKEDVINDFVSSYARGETPNPCVRCNQQIKFAALSARAVALGFDTVATGHYARLSGGRLRRAVDRDKDQSYVLAVLTAQQLRHAAFPIGDTPKRQIRAEAARRGLAVANKPDSHDICFIPSGNTKAFLGERIGVRRGVVVDADGVVLASHDGVHGFTIGQRRGLGIAGPGPNGRPRYVTAIDADTATVHVGDVTDLDVQTLTGRAPVFTAGAAPSGPVDCVVQVRAHGETVSAVAELIGDALFVQLHAPLRGVARGQTLVLYRPDPAGDEVLGSATIAGASGLSTGGNEGHHHHHH”: “soluble”.
For the sequence “MSASPLQITEKSPEMSQTPPKDENNELEFGIPTKRSRSGRPKKICAFSSFKCYEERDIEFFIHQVSDNQIIWDRRNSLNFDGNLVHATFDKIEICCQFLARKNGENASRLWTELASEYKREKARIEQLPSGIYSEEFEIRFPFMQQMWFLEIEASELKEADSNSLEETIVNFARQKSINDAPSPSSSLSAPIEHLNSSINRLIAVIDKKSEDTTKRQIPAKYSDIVEHLIGFLDKTPRERQMEVKCKIYNFLDTIN”, the “soluble on expression in E. coli” value is on record as “not soluble”.
With “MKDVVDKCSTKGCAIDIGTVIDNDNCTSKFSRFFATREEAESFMTKLKELAAAASSADEGASVAYKIKDLEGQVELDAAFTFSCQAEMIIFELSLRSLALEHHHHHH”, the “soluble on expression in E. coli” value was “not soluble”.
Next, “MAELPKTLEEAITQSREAVKSALADGVTRIQVDFLFPELKFMPVAEQFVPLFAEYESRVKVFFADAGAAALARRDWQNVPFKVEDIGTGRAASLQTKIQPEDEIFLFIAPTPVEVPQLEKMCEIIDTRPIVLLNPRLEDSGVVGIGYAARETRRRFISTIESCYYLRPVDDESALFRCYPGQWEVWLESNNEYEKIAELPKRPSGDEIDMILMKGQPAKPSEGTPAKKP”: “soluble”; “MKRLWKKVGSGVKNANYLKKSVEEVAKIEKGETKVVPPKYPTEKSREVSEEIKKELAMKNESLVENMNKMYIKSTDPVERWTSTKDLPTRESEFLHRNDPIWEYGFYEPPVERIPKDKLMFKEALEYLRFRQELLSDSSSPAQKKQAAEFVADHVVTSRVNAETLDDIYEYFRPFERKDKQKVVNRHALAALQDHVQGNSDERRILDEAKDVGKKIRHISNNTKFLDEYQRLEDEEKDKVREAIAQLRQEEHERLNKRLGQLGEIEKTAQEAMKKAVEEKKEK”: “not soluble”; “SSWFRAAPENASPGDQDVFDEEADESLLAQREWQGHMRKRVQEGYRDGLDAGKALTLQRGFNQGYKEGADVIINYGLLRGTLSALLSWCHLHGNSSTLISKISNLLDTVDQCEECVLRRLKSVTSQPRVTDLLDAIEDMDLCHVVPSDQAKGDSNAEINTDSDSPNGMGCSHPEHCRPKEHAHLEKPSLSWILEQTSSLVKQLGVPADILQHLRQL”: “soluble”.
The same measure for “EGFRIAFISDLHYKSLLKEKGLNNLVDLLIAQKPDVLLMGGDYQEGCEYVEPLFAALARVKTPMGTFGVMGNNDYERCHDEIIRTMKHYGMRPLEHEVDTLRKDGQQIILAGVRNPFDLKQNGVSPTLALSPNDFVILLVHTPDYVEDVSVANTDIALAGHTHGGQVRVFGYAPIQNSHYGTRF”: “not soluble”; for “IQVFVKNPDGGSYAYAINPNSFILGLKQQIEDQQGLPKKQQQLEFQGQVLQDWLGLGIYGIQDSDTLILSKKKG”: “soluble”; for “MHFETVIGLEVHVELKTDSKMFSPSPAHFGAEPNSNTNVIDLAYPGVLPVVNKRAVDWAMRAAMALNMEIATESKFDRKNYFYPDNPKAYQISQFDQPIGENGYIDIEVDGETKRIGITRLHMEEDAGKSTHKGEYSLVDLNRQGTPLIEIVSEPDIRSPKEAYAYLEKLRSIIQYTGVSDVKMEEGSLRCDANISLRPYGQEKFGTKAELKNLNSFNYVRKGLEYEEKRQEEELLNGGEIGQETRRFDESTGKTILMRVKEGSDDYRYFPEPDIVPLYIDDAWKERVRQTIPELPDERKAKYVNELGLPAYDAHVLTLTKEMSDFFESTIEHGADVKLTSNWLMGGVNEYLNKNQVELLDTKLTPENLAGMIKLIEDGTMSSKIAKKVFPELAAKGGNAKQIMEDNGLVQISDEATLLKFVNEALDNNEQSVEDYKNGKGKAMGFLVGQIMKASKGQANPQLVNQLLKQELDKRMAGDPLEHHHHHH”: “not soluble”.
With “MTKQLPNLQVALDHSNLKGAITAAVSVGNEVDVIEAGTVCLLQVGSELVEVLRSLFPDKIIVADTKCADAGGTVAKNNAVRGADWMTCICSATIPTMKAARKAIEDINPDKGEIQVELYGDWTYDQAQQWLDAGISQAIYHQSRDALLAGETWGEKDLNKVKKLIEMGFRVSVTGGLSVDTLKLFEGVDVFTFIAGRGITEAKNPAGAARAFKDEIKRIWG”, the “soluble on expression in E. coli” value was “soluble”.
The same measure for “GPGSMPADKSYALKQVQTFGKKKTAIAVATVTKAAQCNIKVNGVPLQQILPDTLRAKIMEAITVVGSKYYSRLRIDVAVHGGGQVSQAYAARQAIAKGLIAFFQKYHNEVEKAALKDKFLAYDKFLLIADPRRCEPKKWGRHSARTRFTKSYR”: “soluble”.
The same measure for “SNAMNVWQVVGYKHSGKTTLMEKWVAAAVREGWRVGTVKHHGHGGEPARPEGVDSVRHERAGAVATAVEGDGLLQLHLRRPLWRLDDVLALYAPLRLDLVLVEGYKQERHPKVVLVRSEEDWASLQHLANIRAVIAWEPLEGPLAHPVFSLADDDEYIPWLMNEVRTRT”: “soluble”; for “MKQVTVLLIGLGRMGSRFFDKFVEIGEERVKIVGVCELNEQNPKVLEAKKRNIPLYPSYKEALTDLHESVDIILDTSNISEVKRDIRELLSRQNNQHSVLLPMVADYLLWYMLPNAEEIPQDHTDIGY”: “not soluble”.
For “MKRILIVTGQSGSGKSSALQVLEDLGYYCIDNLPLALLPEIVAKLDHENNLEQLALGVDVRSTRADMQEFDLVFEQLQKHGTVDVIYLTTQDQELIARFSASRRPHPLASRFKSLNECIQEEKQLLLPIQFRSTVHIDTTDKSVHDLKHTLLSKLGQSDKLILILQSFGYKHGIPLDADYVFDVRHLPNPHWDLELRRFSGLDEPVRRFLESSDQTNEMFDDIFHFLDKWLPVFAEGHRHYMTVSIGCTGGQHRSVYIVDRLKKALEAKWSIQVLHREMKHWS”, the “soluble on expression in E. coli” value was “not soluble”.
